Assay results reported in paper PMC11154709, “4S-fluorination of ProB29 in insulin lispro slows fibril formation” (The Journal of Biological Chemistry, 2024).

Experiments:
[1] = Far-UV circular dichroism (secondary structure); format: physicochemical; conditions: for Ellipticity ratio (208/222 nm): 60 µM insulin or lispro variant, 100 mM phosphate, pH 8.0
Protocol: Figure 2 Biological activity and CD spectroscopy of lispro variants.A, lispros were injected subcutaneously into diabetic mice, and blood glucose was measured over time after injection. The data presented here represent the mean ± SD of 3 to 6 biological replicates. B–E, far-UV circular dichroism spectra (60 μM lispro in […] phosphate buffer, pH 8.0). […] 4R-F, 4R-fluoroproline; 4S-F, 4S-fluoroproline.
The secondary structure of each insulin lispro variant was probed by circular dichroism spectroscopy. […] All lispro samples were further analyzed by analytical ultracentrifugation (Fig. S3). To determine the dissociation constant of each variant, we fit the data to a reversible monomer-dimer equilibrium ([29]). […]
Circular dichroism spectroscopy:
Equilibrium measurements: The circular dichroism spectra of insulin or lispro samples (60 µM in
100 mM sodium phosphate, pH 8.0) were measured at 25°C in 1 mm quartz cuvettes using a step
size of 0.5 nm and averaging time of 1 s on an Aviv Model 430 Circular Dichroism
Spectrophotom eter. A reference buffer spectrum was subtracted from each sample spectrum. […]
Analytical ultracentrifugation: […]

[2] = Analytical ultracentrifugation, velocity sedimentation: hydrodynamic parameters; format: physicochemical; conditions: 140-206 µM in 100 mM phosphate buffer, pH 8.0, 60,000 RPM, 20 °C, brackets 95% confidence interval
Protocol: Lispro variants (140–206 μM in 100 mM phosphate buffer, pH 8.0) were analyzed by velocity sedimentation at the Canadian Center for Hydrodynamics at the University of Lethbridge using absorbance optics. All samples were measured at 60,000 RPM and 20 °C. Data were analyzed with UltraScan III version 4.0 release 6606 ([38]). Velocity data were initially fitted with the two-dimensional spectrum analysis ([39]) to determine meniscus position and time- and radially-invariant noise, and to generate molecular weight distributions. Two-dimensional spectrum analysis results were refined using the genetic algorithm approach ([40]). Sedimentation and diffusion coefficients derived from the genetic algorithm analysis were transformed to molar mass distributions, assuming a partial specific volume of 0.7248 ml/g for all lispro variants. The enhanced van Holde-Weischet analysis ([41]) was used to determine diffusion-corrected sedimentation coefficient distributions. For the Kd analysis, AUC data were fitted with a discrete model genetic algorithm approach ([29]), assuming the known molar mass of the monomer and floating the Kd, koff, total concentration, partial specific volumes, and frictional ratios as reported in Table S3. […]
Analytical ultracentrifugation:
Lispro variants were formulated at 140 -206 µM in 100 mM phosphate buffer, pH 8.0. Velocity sedimentation experiments were performed at the Canadian Center for Hydrodynamics at the University of Lethbridge using absorbance optics. High concentrations sample s were measured at 237 nm, intermediate concentration samples at 232 nm, and low concentration samples at 225 nm. All samples were measured at 60,000 RPM and 20°C in standard Beckman Coulter cell […]
housings fitted with 0.3 cm epon-charcoal centerpieces for the high concentration samples, and 1.2 cm epon-charcoal centerpieces for the intermediate and low concentration samples. All cells were fitted with sapphire windows. Data were analyzed with UltraScan III version 4.0 release 6606. (38) Velocity data were initially fitted with the two -dimensional spectrum analysis (39) to determine meniscus position and time - and radially-invariant noise, and to generate molecular weight distributions. 2DSA results were refined using the genetic algorithm (GA) approach. (40) Sedimentation and diffusion coefficients derived from the GA analysis were transformed to molar mass distributions (see Figure S2), assuming a partial specific volume of 0.7248 ml/g for all lispro variants. The enhanced van Holde -Weischet analysis (41) was used to determine diffusion - corrected sedimentation coefficient distributions. For the K d analysis, AUC data were fitted with a discrete model genetic algorithm (DMGA) approach,(29) assuming the known molar mass of the monomer, and floating the K d, koff, total concentration, partial specific volumes, and frictional […]
Lispro samples (60 µM in 100 mM sodium phosphate, pH 8.0) were centrifuged at 22,000 g for 1 h at 4°C, before 1 µM thioflavin T (ThT) was added. Each lispro (200 µL) was added to a 96 -well, black, clear bottom plate (Greiner Bio -One) and sealed. Samples were shaken continuously at 960 rpm on a Varioskan multimode plate reader at 37°C, and fluorescence readings were recorded every 15 min (444 nm excitation, 485 nm em ission). Fibrillation runs were performed on at least two separate HPLC fractions, each in triplicate or quadruplicate, and on two different days. The growth phase of each fibrillation replicate was fit to a linear function; f ibrillation lag times were reported as the x-intercept of this fit. Fibril samples were stored at 4°C until analysis by transmission electron microscopy (TEM).
Transmission electron microscopy:
Lispro fibrils were briefly centrifuged (5 kg, 1 min), then washed twice and resuspended in ddH 2O.
Fibrils were stained with 2% uranyl acetate on a 300 -mesh formvar/carbon coated copper grid (Electron Microscopy Sciences) and imaged on a Tecnai T12 LaB6 […] transmission electron […]

[3] = cited from earlier work
Excerpt: Removal of the constrained pyrrolidine ring of proline at position B28 grants additional conformational degrees of freedom and removes hydrophobic packing interactions at the dimer interface. […] However, the standard mutagenesis approach employed in the discovery of insulin lispro ([7]) (and other FDA-app ...

| Substance | Ellipticity ratio (208/222 nm) ([1]; 25 °C) | Partial specific volume PSV [2] | Dimer diffusion coefficient D [2] | Dimer frictional ratio [2] | Dimer sedimentation coefficient s [2] | Monomer diffusion coefficient D [2] | Monomer frictional ratio [2] | Monomer sedimentation coefficient s [2] | absorption [3] | oligomeric state at 60 μM ([1]; 60 μM, statement in discussion of CD spectra) | CD spectrum ([1]; far-UV CD, 60 μM lispro in 10 mM phosphate buffer, pH 8.0 (Fig. 2; SI: 100 mM sodium phosphate), 25 °C) |
| --- | --- | --- | --- | --- | --- | --- | --- | --- | --- | --- | --- |
| KP-4S-F: insulin lispro with ProB29 replaced by 4S-fluoroproline | 1.59 ± 0.06 | 0.68 [0.67, 0.69] ml g-1 | 1.20 [1.05, 1.35] µm2/s | 1.23 [1.08, 1.37] | 1.87 [1.63, 2.10] S | 1.32 [1.29, 1.36] µm2/s | 1.40 [1.35, 1.44] | 1.03 [1.00, 1.05] S |  |  |  |
| KP-44-diF: insulin lispro with ProB29 replaced by 4,4-difluoroproline | 1.61 ± 0.05 | 0.67 [0.64, 0.70] ml g-1 | 0.99 [0.84, 1.14] µm2/s | 1.50 [1.40, 1.60] | 1.59 [1.30, 1.88] S | 1.24 [1.16, 1.32] µm2/s | 1.50 [1.40, 1.60] | 1.00 [0.95, 1.04] S |  |  |  |
| KP-4R-F: insulin lispro with ProB29 replaced by 4R-fluoroproline | 1.62 ± 0.06 | 0.69 [0.69, 0.70] ml g-1 | 1.31 [1.08, 1.55] µm2/s | 1.12 [0.90, 1.35] | 1.99 [1.58, 2.39] S | 1.20 [1.14, 1.25] µm2/s | 1.54 [1.47, 1.61] | 0.90 [0.88, 0.93] S |  |  |  |
| insulin lispro: fast-acting insulin with inversion of the residues ProB28 and LysB29; Humalog, Eli Lilly [reference compound] | 1.63 ± 0.07 | 0.72 [0.70, 0.74] ml g-1 | 1.10 [0.99, 1.21] µm2/s | 1.31 [1.20, 1.43] | 1.48 [1.25, 1.72] S | 1.26 [1.16, 1.35] µm2/s | 1.44 [1.32, 1.57] | 0.85 [0.81, 0.88] S | accelerate absorption | monomeric | increased negative ellipticity at 208 nm and decreased negative ellipticity at 222 nm |
